Reference: the supplement of paper PMC11246515
± gives the standard deviation of the averaged measurements.

Assay: total protein half-life in vivo (active degradation + dilution); higher = more stable protein
[1] = E. coli NCM3722 delta-clpP delta-lon delta-hslV, growth: N-lim chemostat, doubling time 6 h
[2] = E. coli NCM3722 delta-clpP, growth: N-lim chemostat, doubling time 6 h
[3] = E. coli NCM3722 delta-hslV, growth: N-lim chemostat, doubling time 6 h
[4] = E. coli NCM3722 delta-lon, growth: N-lim chemostat, doubling time 6 h
[5] = wild type E. coli NCM3722, growth: C-lim chemostat, doubling time 3 h
[6] = wild type E. coli NCM3722, growth: C-lim chemostat, doubling time 6 h
[7] = wild type E. coli NCM3722, growth: N-lim chemostat, doubling time 6 h
[8] = wild type E. coli NCM3722, growth: N-lim chemostat, doubling time 12 h
[9] = wild type E. coli NCM3722, growth: P-lim chemostat, doubling time 12 h
[10] = E. coli NCM3722 delta-smpB, growth: N-lim chemostat, doubling time 6 h
[11] = wild type E. coli NCM3722, growth: C-lim chemostat, doubling time 12 h
[12] = wild type E. coli NCM3722, growth: P-lim chemostat, doubling time 6 h

Sequence	total protein half-life in vivo [1] [h]	total protein half-life in vivo [2] [h]	total protein half-life in vivo [3] [h]	total protein half-life in vivo [4] [h]	total protein half-life in vivo [5] [h]	total protein half-life in vivo [6] [h]	total protein half-life in vivo [7] [h]	total protein half-life in vivo [8] [h]	total protein half-life in vivo [9] [h]	total protein half-life in vivo [10] [h]	total protein half-life in vivo [11] [h]	total protein half-life in vivo [12] [h]
MGKLTLLLLAILVWLQYSLWFGKNGIHDYTRVNDDVAAQQATNAKLKARNDQLFAEIDDLNGGQEALEERARNELSMTRPGETFYRLVPDASKRAQSAGQNNR [P0A6S5]	5.44	3.17	4.05	4.37	2.7	4.69 ± 0.55	3.47	6.03	> 16			
MGLPPLSKIPLILRPQAWLHRRHYGEVLSPIRWWGRIPFIFYLVSMFVGWLERKRSPLDPVVRSLVSARIAQMCLCEFCVDITSMKVAERTGSSDKLLAVADWRQSPLFSDEERLALEYAEAASVTPPTVDDALRTRLAAHFDAQALTELTALIGLQNLSARFNSAMDIPAQGLCRIPEKRS	6.87 ± 0.28	6.4 ± 0.37	6.22 ± 0.48	6.463 ± 0.023	2.74 ± 0.068	5.52 ± 0.59	6 ± 0.46	11.3 ± 3.4	13.1 ± 0.5	5.67 ± 0.46	12.1 ± 0.48	6.48 ± 0.71
MGNNVVVLGTQWGDEGKGKIVDLLTERAKYVVRYQGGHNAGHTLVINGEKTVLHLIPSGILRENVTSIIGNGVVLSPAALMKEMKELEDRGIPVRERLLLSEACPLILDYHVALDNAREKARGAKAIGTTGRGIGPAYEDKVARRGLRVGDLFDKETFAEKLKEVMEYHNFQLVNYYKAEAVDYQKVLDDTMAVADILTSMVVDVSDLLDQARQRGDFVMFEGAQGTLLDIDHGTYPYVTSSNTTAGGVATGSGLGPRYVDYVLGILKAYSTRVGAGPFPTELFDETGEFLCKQGNEFGATTGRRRRTGWLDTVAVRRAVQLNSLSGFCLTKLDVLDGLKEVKLCVAYRMPDGREVTTTPLAADDWKGVEPIYETMPGWSESTFGVKDRSGLPQAALNYIKRIEELTGVPIDIISTGPDRTETMILRDPFDA [P0A7D4]	4.49 ± 0.41	4.35 ± 0.28	4.567 ± 0.026	4.73 ± 0.3	3.04 ± 0.093	5.86 ± 0.3	4.39 ± 0.098	7.26 ± 0.18	10.6 ± 0.72	4.3 ± 0.15	10.4 ± 1.6	6.09 ± 0.23
MGNRTKEDELYREMCRVVGKVVLEMRDLGQEPKHIVIAGVLRTALANKRIQRSELEKQAMETVINALVK [P0ACX5]			3.93		> 4	4.79		15.3	12.6 ± 1.2			5.05 ± 1.9
MGNSDRKPGLIKRLWKWWRTPSRLALGTLLLIGFVGGIVFWGGFNTGMEKANTEEFCISCHEMRNTVYQEYMDSVHYNNRSGVRATCPDCHVPHEFVPKMIRKLKASKELYGKIFGVIDTPQKFEAHRLTMAQNEWRRMKDNNSQECRNCHNFEYMDTTAQKSVAAKMHDQAVKDGQTCIDCHKGIAHKLPDMREVEPGF [P0ABL5]		4.79				3.97			8.81	5.22 ± 1.8	9.62	
MGNTSIQTQSYRAVDKDAGQSRSYIIPFALLCSLFFLWAVANNLNDILLPQFQQAFTLTNFQAGLIQSAFYFGYFIIPIPAGILMKKLSYKAGIITGLFLYALGAALFWPAAEIMNYTLFLVGLFIIAAGLGCLETAANPFVTVLGPESSGHFRLNLAQTFNSFGAIIAVVFGQSLILSNVPHQSQDVLDKMSPEQLSAYKHSLVLSVQTPYMIIVAIVLLVALLIMLTKFPALQSDNHSDAKQGSFSASLSRLARIRHWRWAVLAQFCYVGAQTACWSYLIRYAVEEIPGMTAGFAANYLTGTMVCFFIGRFTGTWLISRFAPHKVLAAYALIAMALCLISAFAGGHVGLIALTLCSAFMSIQYPTIFSLGIKNLGQDTKYGSSFIVMTIIGGGIVTPVMGFVSDAAGNIPTAELIPALCFAVIFIFARFRSQTATN						3.02					4.27 ± 0.49	
MGQLIDGVWHDTWYDTKSTGGKFQRSASAFRNWLTADGAPGPTGTGGFIAEKDRYHLYVSLACPWAHRTLIMRKLKGLEPFISVSVVNPLMLENGWTFDDSFPGATGDTLYQNEFLYQLYLHADPHYSGRVTVPVLWDKKNHTIVSNESAEIIRMFNTAFDALGAKAGDYYPPALQTKIDELNGWIYDTVNNGVYKAGFATSQEAYDEAVAKVFESLARLEQILGQHRYLTGNQLTEADIRLWTTLVRFDPVYVTHFKCDKHRISDYLNLYGFLRDIYQMPGIAETVNFDHIRNHYFRSHKTINPTGIISIGPWQDLDEPHGRDVRFG	6.05 ± 0.31	4.89 ± 0.16		5.03 ± 0.45	3.53 ± 0.54	5.64 ± 0.061	5.04 ± 0.15	8.28 ± 0.38	12.3 ± 0.26	5.01 ± 0.34		5.99 ± 0.58
MGQSSQPHELGGGLKSRHVTMLSIAGVIGASLFVGSSVAIAEAGPAVLLAYLFAGLLVVMIMRMLAEMAVATPDTGSFSTYADKAIGRWAGYTIGWLYWWFWVLVIPLEANIAAMILHSWVPGIPIWLFSLVITLALTGSNLLSVKNYGEFEFWLALCKVIAILAFIFLGAVAISGFYPYAEVSGISRLWDSGGFMPNGFGAVLSAMLITMFSFMGAEIVTIAAAESDTPEKHIVRATNSVIWRISIFYLCSIFVVVALIPWNMPGLKAVGSYRSVLELLNIPHAKLIMDCVILLSVTSCLNSALYTASRMLYSLSRRGDAPAVMGKINRSKTPYVAVLLSTGAAFLTVVVNYYAPAKVFKFLIDSSGAIALLVYLVIAVSQLRMRKILRAEGSEIRLRMWLYPWLTWLVIGFITFVLVVMLFRPAQQLEVISTGLLAIGIICTVPIMARWKKLVLWQKTPVHNTR			0.975							1.1		
MGSGWHEWPLMIFTVFGQCVAGGFIVLALALLKGDLRAEAQQRVIACMFGLWVLMGIGFIASMLHLGSPMRAFNSLNRVGASALSNEIASGSIFFAVGGIGWLLAMLKKLSPALRTLWLIVTMVLGVIFVWMMVRVYNSIDTVPTWYSIWTPMGFFLTMFMGGPLLGYLLLSLAGVDGWAMRLLPAISVLALVVSGVVSVMQGAELATIHSSVQQAAALVPDYGALMSWRIVLLAVALCLWIAPQLKGYQPAVPLLSVSFILLLAGELIGRGVFYGLHMTVGMAVAS						5.22			10.9			
